Test results as given in publication PMC8811538, “Pilot scale production, extraction and purification of a thermostable phycocyanin from Synechocystis sp. PCC 6803” (Bioresource Technology, 2022).
“And” between values parts separate entries of the source, which are not always exact repeats. Equal values may be shown once.

What was measured:
[1] = molecular target: T1, phycocyanin β-subunit (CpcB) of Te-PC (Thermosynechococcus elongatus BP-1, UniProt P50033 1-172, phycobilin chromophore (chromophorylated; sites not given)); test: SEC; purified, freeze-dried Te-PC resuspended in 15 mM citric acid-trisodium citrate pH 6.0; 250 µL (425 µg Te-PC) on Superdex-200 10/300 GL in 100 mM trisodium citrate, pH 6.0, 8 °C, 0.5 mL/min; absorption at 280 and 615 nm; sizes from molecular weight standards (apparent); peaks about 5% hexamer, 80% trimer, 15% (ɑβ) monomer; settings: both partners purified
T1 construct: phycocyanin beta-subunit CpcB of Thermosynechococcus elongatus BP-1, expressed from the cpcBACD (TeBACD) operon; source: Synechocystis sp
T1 sequence (looked up): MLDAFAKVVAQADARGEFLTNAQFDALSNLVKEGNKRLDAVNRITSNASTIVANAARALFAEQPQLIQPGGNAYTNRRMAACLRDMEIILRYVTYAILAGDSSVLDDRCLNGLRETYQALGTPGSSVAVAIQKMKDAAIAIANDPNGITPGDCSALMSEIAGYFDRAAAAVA

[2] = molecular target: the molecule itself; test: as above

B1: phycocyanin ⍺-subunit (CpcA) of Te-PC (natural protein)
chain: not shown
modifications: phycobilin chromophore (chromophorylated; sites not given)
notes: phycocyanin alpha-subunit CpcA of Thermosynechococcus elongatus BP-1, expressed from the cpcBACD (TeBACD) operon; source: Synechocystis sp
Does B1 bind [1]?
Result: binds

B2: thermostable phycocyanin from Thermosynechococcus elongatus BP-1, (ɑβ) monomer (complex)
chain 1: not shown
chain 2: MLDAFAKVVAQADARGEFLTNAQFDALSNLVKEGNKRLDAVNRITSNASTIVANAARALFAEQPQLIQPGGNAYTNRRMAACLRDMEIILRYVTYAILAGDSSVLDDRCLNGLRETYQALGTPGSSVAVAIQKMKDAAIAIANDPNGITPGDCSALMSEIAGYFDRAAAAVA
modifications: phycobilin chromophore (chromophorylated; sites not given) | phycobilin chromophore (chromophorylated; sites not given)
notes: phycocyanin alpha-subunit CpcA of Thermosynechococcus elongatus BP-1, expressed from the cpcBACD (TeBACD) operon; phycocyanin beta-subunit CpcB of Thermosynechococcus elongatus BP-1, expressed from the cpcBACD (TeBACD) operon; The construct is described in the supplementary materials and in Puzorjov et al., 2021; also called Te-PC; PC; source: Synechocystis sp
With B2 as the binder, how does the “stoichiometry N” value [2] read?
Its value is 6 and 3.
